± gives the uncertainty stated by the source.

Protein stability index data for 36 sequences are collected here from the supplement of paper PMC9732359.

The nature of the series: protein stability index of a GFP-peptide fusion (yeast GPS) (PSI 1-4); higher = more stable; sorted into four equal gates, so the index is relative within each strain. Put shortly: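 Each library plasmid carries Cherry plus GFP with a tiled 17-residue yeast protein peptide fused downstream, and the pooled library was carried in yeast. Mid-log cultures in leucine-free medium were sorted into four equal gates by GFP/Cherry ratio. Reads from Illumina sequencing of PCR-amplified plasmids from each gate were assigned to strains by barcodes. Per peptide, the protein stability index was computed as the summed products of gate read frequency and gate number.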

Take DLSWSKQTDTGITHFRA [PRP8]: the protein stability index runs as follows: (doa10∆) 2.85 ± 0.085; (pdr5∆) 3.11 ± 0.057; (san1∆) 3 ± 0.055; (ubr1∆) 3.02 ± 0.049.

For the sequence LPVNIRRIIQNAQQTFH [RPO21], the protein stability index by setting is: (doa10∆) 2 ± 0.053; (pdr5∆) 2.01 ± 0.05; (san1∆) 2.64 ± 0.075; (ubr1∆) 1.56 ± 0.051.

With GDDEATEIISTLSNGLI [BRR2], the protein stability index is, setting by setting: (doa10∆) 3.32 ± 0.099; (pdr5∆) 3.1 ± 0.13; (san1∆) 3.42 ± 0.096; (ubr1∆) 3.11 ± 0.21.

Turning to LVLNKSSIDRGFGRCET [RET1], the protein stability index reads like this: (doa10∆) 3.03 ± 0.28; (pdr5∆) 3.11 ± 0.23; (san1∆) 2.76 ± 0.12.

In the case of NARMPGMPNMPGMPNMP [SRP54], the protein stability index is 3.34 ± 0.11 (doa10∆), 3.25 ± 0.085 (pdr5∆), 3.09 ± 0.062 (san1∆) and 2.94 ± 0.071 (ubr1∆).

For the sequence NEDQFLEEITQYEHLIK [YDL116W/NUP84], the protein stability index (pdr5∆) turned out to be 3.02 ± 0.27.

In turn, DYCRILSDIETAVNGID [YGL172W/NUP49] came in with a protein stability index (doa10∆) of 3.28 ± 0.16, a protein stability index (pdr5∆) of 3.15 ± 0.13, a protein stability index (san1∆) of 2.75 ± 0.17 and a protein stability index (ubr1∆) of 2.71 ± 0.1.

For IVVAMTGKDCVAIACDL [PUP3], the protein stability index runs as follows: (doa10∆) 1.38 ± 0.062; (pdr5∆) 1.47 ± 0.07; (san1∆) 2.08 ± 0.066; (ubr1∆) 2.31 ± 0.046.

In the case of KHVGFELLSMGNAKESK [SRP72], the protein stability index by setting is: (doa10∆) 2.88 ± 0.11; (pdr5∆) 2.03 ± 0.14; (san1∆) 2.4 ± 0.18; (ubr1∆) 3.24 ± 0.14.

Take VKWVHMIIDEGHRMKNA [SNF2]: the protein stability index was found to be 1.81 ± 0.12 (doa10∆), 1.91 ± 0.075 (pdr5∆), 1.77 ± 0.13 (san1∆) and 3.11 ± 0.2 (ubr1∆).

For the sequence KAPLEDDDKKPDDDKIV [RPT1], the protein stability index is, setting by setting: (doa10∆) 2.67 ± 0.15; (pdr5∆) 3.11 ± 0.17; (san1∆) 3.19 ± 0.14; (ubr1∆) 3.26 ± 0.067.

Consider KLFNRIVERETNWIIYP [CSN12], for which the protein stability index by setting is: (doa10∆) 2.81 ± 0.19; (pdr5∆) 3.48 ± 0.24; (san1∆) 2.85 ± 0.21.

As to KHAEFDLSLLGYCDDIA [SIR2], the protein stability index reads like this: (doa10∆) 3 ± 0.088; (pdr5∆) 2.68 ± 0.066; (san1∆) 2.99 ± 0.056; (ubr1∆) 2.32 ± 0.063.

In the case of PMPIITFLSEWGMEPLE [RPB2], the protein stability index runs as follows: (doa10∆) 2.7 ± 0.06; (pdr5∆) 2.96 ± 0.09; (san1∆) 2.51 ± 0.08; (ubr1∆) 2.76 ± 0.071.

Take LYTLAQETEGTNRHTLA [SIR3]: the protein stability index (doa10∆) was found to be 2.73 ± 0.077, the protein stability index (pdr5∆) was 2.09 ± 0.072, the protein stability index (san1∆) turned out to be 2.2 ± 0.084 and the protein stability index (ubr1∆) worked out at 2.52 ± 0.059.

As for KPNNTANTGGGLFGANS [YGL172W/NUP49], the protein stability index worked out at 3.16 ± 0.14 (doa10∆), 3.28 ± 0.089 (pdr5∆), 3.03 ± 0.072 (san1∆) and 3.08 ± 0.089 (ubr1∆).

Turning to DKFRKACSSSGRETILS [SIR3], the protein stability index is, setting by setting: (doa10∆) 1.94 ± 0.042; (pdr5∆) 2.08 ± 0.042; (san1∆) 1.83 ± 0.073; (ubr1∆) 2.64 ± 0.046.

For the sequence GTGNNNKLNFIVDDKQE [DIB1], the protein stability index (doa10∆) came to 1.42 ± 0.073, the protein stability index (pdr5∆) amounted to 1.36 ± 0.047, the protein stability index (san1∆) is 1.57 ± 0.17 and the protein stability index (ubr1∆) turned out to be 1.61 ± 0.058.

Regarding PNIRELGVKNLGLCCLL [YCG1], the protein stability index runs as follows: (doa10∆) 2.91 ± 0.25; (san1∆) 1.87 ± 0.21; (ubr1∆) 1.46 ± 0.061.

Sequence DKINQLSVVKYLLASLK [RPN9] showed a protein stability index (doa10∆) of 2.02 ± 0.16 and a protein stability index (pdr5∆) of 2.15 ± 0.2.

On to TNVLNFIKLQKIDIIEL [FAS1], for which the protein stability index is, setting by setting: (doa10∆) 2.35 ± 0.042; (pdr5∆) 1.94 ± 0.043; (san1∆) 1.91 ± 0.075; (ubr1∆) 2.05 ± 0.044.

On to AFLSFLAYRNYWTQYLG [YJL039C/NUP192], for which the protein stability index (doa10∆) is 1.33 ± 0.057, the protein stability index (pdr5∆) stood at 1.26 ± 0.04, the protein stability index (san1∆) came out at 1.26 ± 0.11 and the protein stability index (ubr1∆) was 1.26 ± 0.068.

With NYTDLIWFPEDFISPEL [MED1], the protein stability index by setting is: (doa10∆) 2.56 ± 0.058; (pdr5∆) 2.61 ± 0.058; (san1∆) 2.82 ± 0.067; (ubr1∆) 2.56 ± 0.032.

As to LNFSTTAPANTTDANGS [MED2], the protein stability index (doa10∆) is 2.06 ± 0.061, the protein stability index (pdr5∆) came to 2.08 ± 0.051, the protein stability index (san1∆) was found to be 2.58 ± 0.056 and the protein stability index (ubr1∆) stood at 2.78 ± 0.057.

As to RLGDLGVIDDSFDVAIS [SMC4], the protein stability index was 2.85 ± 0.14 (doa10∆), 2 ± 0.14 (pdr5∆), 1.23 ± 0.25 (san1∆) and 1.98 ± 0.067 (ubr1∆).

Consider MTVTKVSLPEGSFKRVK [BRR2], for which the protein stability index is 2.92 ± 0.13 (doa10∆), 2.72 ± 0.11 (pdr5∆), 3.19 ± 0.076 (san1∆) and 3.17 ± 0.076 (ubr1∆).

As for NTHAVLVALKRNADELS [PRE5], the protein stability index by setting is: (doa10∆) 2.13 ± 0.067; (pdr5∆) 2.69 ± 0.05; (san1∆) 2.45 ± 0.05; (ubr1∆) 2.41 ± 0.039.

In the case of AGKFPTPVSHNDDLYGK [RPL1A], the protein stability index was 2.26 ± 0.041 (doa10∆), 2.62 ± 0.056 (pdr5∆), 2.21 ± 0.057 (san1∆) and 2.45 ± 0.043 (ubr1∆).

In the case of LQKVENQTIKEAKDAII [YIL149C/MLP2], the protein stability index reads like this: (doa10∆) 3.05 ± 0.046; (pdr5∆) 3.18 ± 0.047; (san1∆) 3.04 ± 0.045; (ubr1∆) 3.13 ± 0.034.

As for RSKNLIFNGETLEDALR [GRR1], the protein stability index reads like this: (doa10∆) 2.92 ± 0.093; (pdr5∆) 2.58 ± 0.054; (san1∆) 2.65 ± 0.057; (ubr1∆) 2.77 ± 0.07.

YQGVYSMGSILLSFVLG [YML031W/NDC1]: the protein stability index stood at 2.29 ± 0.074 (doa10∆), 2.14 ± 0.11 (pdr5∆), 2.58 ± 0.11 (san1∆) and 2.44 ± 0.12 (ubr1∆).

As to LKETVIPSLANNGNNST [POP6], the protein stability index was 2.41 ± 0.058 (doa10∆), 3.01 ± 0.065 (pdr5∆), 2.54 ± 0.068 (san1∆) and 2.56 ± 0.05 (ubr1∆).

LPKVRYNVEKVKRLMDF [NSL1]: the protein stability index stood at 1.8 ± 0.07 (doa10∆), 2.38 ± 0.065 (pdr5∆), 1.96 ± 0.13 (san1∆) and 2.15 ± 0.081 (ubr1∆).

In turn, HLGCVPIGEAGDFGGWF [RIP1] came in with a protein stability index (doa10∆) of 2.81 ± 0.12, a protein stability index (pdr5∆) of 3.08 ± 0.11, a protein stability index (san1∆) of 2.7 ± 0.11 and a protein stability index (ubr1∆) of 3.06 ± 0.14.

Turning to TPYNIDRLTQLVRNGPN [RPO21], the protein stability index was 3.05 ± 0.12 (doa10∆), 3.19 ± 0.13 (pdr5∆), 3.17 ± 0.076 (san1∆) and 3.18 ± 0.2 (ubr1∆).

Take CSHIFTSDQKNKRTQFS [RPB9]: the protein stability index is, setting by setting: (doa10∆) 2.52 ± 0.058; (pdr5∆) 2.72 ± 0.052; (san1∆) 2.47 ± 0.068; (ubr1∆) 2.53 ± 0.043.
